This is an account of results in paper PMC6520365, “Structural and functional characterization of the PDZ domain of the human phosphatase PTPN3 and its interaction with the human papillomavirus E6 oncoprotein” (Scientific Reports, 2019).

What all share (type): physicochemical, human
Series [1] can be described thus: Aggregation/stability followed by NMR HSQC spectra at 20 °C. As for the experimental part:
To evaluate the stability of PTPN3-PDZ, we performed differential scanning calorimetry (DSC) (Fig. 2C). […] As a comparison, we performed DSC on PTPN4-PDZ. We obtained an endothermic peak with a Tm of 47 °C (Fig. 2C). […] This thermal instability of the PTPN3-PDZ construct could be responsible for its aggregation previously detected by NMR.
The instability and tendency to oligomerize of PTPN3-PDZ made this construct unsuitable for crystallogenesis. To gain in stability and protein expression yield, we extended the N-terminal extremity of PTPN3-PDZ by 15-residues with its wild-type upstream sequence (PTPN3-PDZNext in Fig. 1). These extensions have been reported to provide structural stability to some PDZ containing proteins[13],[14]. The PTPN3-PDZ production yield was increased two-fold after extension from 0.9 mg to 1.8 mg of purified protein per liter of culture. The stability of PTPN3-PDZNext was then evaluated by NMR HSQC spectra recorded during a week at 20 °C. […] The additional peaks of the N-terminal extension residues fall in the spectral region characteristic of unfolded protein and no chemical shift differences between PTPN3-PDZNext and the shorter form are detected.
A series of ^1H, ^15N HSQC spectra was recorded over a week at 20 °C for a sample of PTPN3-PDZNext at 170 μM to follow the stability of the construct.

Series [2] can be described thus: AUC sedimentation velocity of free PTPN3 PDZ constructs. The note with it: 20 °C. As for the experimental part:
To estimate the oligomeric state of the PTPN3-PDZ construct, analytical ultracentrifugation (AUC) experiments were performed (Table 2). Three different concentrations of the protein were tested, 10, 25 and 70 μM. Only one single peak was detected at 10 μM with a sedimentation coefficient of 1.5S in agreement with a monomeric form of 10.5 kDa. At 25 μM, an additional peak was detected with a sedimentation coefficient of 2.6S corresponding to a dimeric form.
Sedimentation velocity experiments were carried out at 20 °C using a Beckman Coulter XL-I centrifuge equipped with a AN60-Ti rotor. Various protein and protein–peptide complex concentrations (protein concentrations ranging from 12.5 to 70 μM) samples were centrifuged for 17 h at 42000 rpm. Data were analyzed with SEDFIT 15.1 using a continuous size distribution c(S) model. The partial specific volume, the viscosity and the density of the samples were calculated with […]. The processed data were used to obtain values of sedimentation coefficients at null concentration in our experimental conditions (S0) and to get the standard sedimentation coefficients in water at 20 °C (S0,w,20) (Table 2).

Series [3] is described as follows: DSC of free PDZ domain (thermal stability). The note with it: 21 μM free PTPN3-PDZ, 18 μM PTPN4-PDZ, scan rate 200 °C/h, buffer A pH 7.5, repeated three times. As for the experimental part:
DSC experiments were carried out on a Microcal VP-capillary DSC (Malvern). 18, 21, 94 and 28 μM of PTPN4-PDZ, free PTPN3-PDZ, free PTPN3-PDZNext and PTPN3-PDZ complexed with peptides respectively were scanned from 10 °C to 90–100 °C with a scan rate of 200 °C/h. Large excess of peptides were used: about 600 μM for p38γ PBM, about 300 μM for HBVc PBM and HPV16E6 PBM and about 200 μM for HPV18E6 PBM. The buffer A was repeatedly scanned to ensure a stable buffer baseline. The buffer baseline was subtracted from the protein thermogram. Subsequent to normalization of the data by the protein concentration, a non-linear curve fitting algorithm was employed to obtain the Tm of the transition. All experiments were repeated three times.

A short description of series [4]: AUC sedimentation velocity of free PTPN3 PDZ constructs. The note with it: 20 °C. The source holds these as a separate data set.
The mark [5] stands for this setting: PTPN3-PDZ 25 μM, two peaks are present.

Marks after values point to notes of the source that are not given here.

B1: PTPN3-PDZ: recombinant PDZ domain of human PTPN3 expressed in E. coli (protein)
chain: GDSYLVLIRITPDEDGKFGFNLKGGVDQKMPLVVSRINPESPADTCIPKLNEGDQIVLINGRDISEHTHDQVVMFIKASRESHSRELALVIRRRAVRSFADFKSEDELNQLFPEAIFPMCPEGGDTLEGSMAQLKKGLESGTVLIQFEQLYRKKPGLAITFAKLPQNLDKNRYKDVLPYDTTRVLLQGNEDYINASYVNMEIPAANLVNKYIATQGPLPHTCAQFWQVVWDQKLSLIVMLTTLTERGRTKCHQYWPDPPDVMNHGGFHIQCQSEDCTIAYVSREMLVTNTQTGEEHTVTHLQYVAWPDHGVPDDSSDFLEFVNYVRSLRVDSEPVLVHCSAGIGRTGVLVTMETAMCLTERNLPIYPLDIVRKMRDQRAMMVQTSSQYKFVCEAILRVYEEGLVQMLDPS
modifications: left off: GST, N-terminal, cleaved
notes: recombinant PDZ domain of human PTPN3 expressed in E. coli
Consider B1, for which the “aggregation by HSQC peak intensity” value in series [1] (after 10 h at 20 °C, data not shown) is given as “significant loss of peak intensities”. The MW estimated is 12.4 kDa in series [2] (PTPN3-PDZ 10 μM, 42000 rpm) and 11.3–25.9^a kDa in series [2] (setting [5]). For the same molecule, the “Sed coef (S0,w,20)” value in series [2] (PTPN3-PDZ 10 μM, standard coefficient in water at 20 °C) was 1.5 S; in series [2] (setting [5]), 1.5–2.6^a S. The “oligomeric state of free PTPN3-PDZ” value in series [2] (PTPN3-PDZ 70 μM) is “higher oligomeric species could be detected”. Further, the “Tm (thermal transition midpoint), free PDZ domain” value in series [3] is 41 °C.

B2: PTPN3-PDZNext: PTPN3-PDZ extended at the N-terminal extremity by 15 residues with its wild-type upstream sequence (protein)
chain: STEDASQYYCDKNDNGDSYLVLIRITPDEDGKFGFNLKGGVDQKMPLVVSRINPESPADTCIPKLNEGDQIVLINGRDISEHTHDQVVMFIKASRESHSRELALVIRRRAVRSFADFKSEDELNQLFPEAIFPMCPEGGDTLEGSMAQLKKGLESGTVLIQFEQLYRKKPGLAITFAKLPQNLDKNRYKDVLPYDTTRVLLQGNEDYINASYVNMEIPAANLVNKYIATQGPLPHTCAQFWQVVWDQKLSLIVMLTTLTERGRTKCHQYWPDPPDVMNHGGFHIQCQSEDCTIAYVSREMLVTNTQTGEEHTVTHLQYVAWPDHGVPDDSSDFLEFVNYVRSLRVDSEPVLVHCSAGIGRTGVLVTMETAMCLTERNLPIYPLDIVRKMRDQRAMMVQTSSQYKFVCEAILRVYEEGLVQMLDPS
modifications: left off: GST, N-terminal, cleaved
In the case of B2, the “aggregation by HSQC peak intensity” value in series [1] (HSQC recorded during a week at 20 °C, PTPN3-PDZNext 170 μM) is “without any signs of aggregation”. Also, the MW estimated is 12.7 kDa in series [4] (PTPN3-PDZNext 17.5 μM), 12.5 kDa in series [4] (PTPN3-PDZNext 35 μM) and 15 kDa in series [4] (PTPN3-PDZNext 70 μM). Also, the “Sed coef (S0,w,20)” value in series [4] (PTPN3-PDZNext 17.5 μM) is on record as 1.6 S; in series [4] (PTPN3-PDZNext 35 μM), 1.7 S; in series [4] (PTPN3-PDZNext 70 μM), 1.6 S. Besides, the “oligomeric state of free PTPN3-PDZNext” value in series [4] (PTPN3-PDZNext between 17.5 μM and 70 μM) is listed as “devoid of higher oligomeric species”.
